In the domain aggregation screens of Martell et al. (2025):

Assay: soluble fraction after stress (log2 fold change); higher = more stays soluble; pooled small domains, quantitative proteomics
Details: stress: pH 4
In short: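 Custom libraries of small protein domains were pooled and measured with high-throughput quantitative proteomics after pH 4 stress. The read-out is the fold change in the amount of each domain that stays soluble after the acid stress, taken as a measure of aggregation propensity. Fold changes are on a log2 scale, and higher values mean more of the domain stayed soluble.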

Sequence | soluble fraction (log2)
HMISKRFQIDEENAHKRIDIFLSHEFDSISRGIVQELIVKGEVLVNDKVTKRNYKLKTGDLVDITINL | 0.247
HMQEEFVAPDVKDGAIVLHKAFGEGTVTKIDKAQKHIRVTFGVGEKTFIFPDAFKQGFLRMKG | 0.222
HMTISIAEQIFEQLEREILSGAYPRGELLTETKLSEKLGVSRTPIREALRRLDQEHIIKMTTKGAFVLGI | 0.198
HMSEITMMQMEIPEGHNWENRLVKDVSMPTGSLAVMIKRHGETLIPGGDTRILAGDTIVLSVPAYESG | -1.03
HMSKKAIVINLLKRPDGASLKDIMQATYWQAHSVRGFISGSLTKKMGLNVESFKRPDGERAYRIN | 0.22
HMSGVSESIEKKIQYLLLEKPLPLHDLIEAIEIGKEEDRLKVLRSLMDSDTVKIEDDLYHWNA | -0.393
HMDAKIKDYADAYAKMDPQQAASLFNNMTTGSLDLVAKILENIPANKRAAILEKMDVNAAAQVTEKMR | 0.188
HMDTEIGDILALRQIMELLDEKDRQLIIMRYFQGLTQSVTAKNLNMTQVQVSRREKKLLTFMREQLL | -0.761
HMADTIEVVVQVNGKVRAKISTSPEVFADSTKLQELALADANVQKFIAGQTIRKVIIPKGTKLLNIV | -0.55
HMDHVEDRMVLEVVLKKLTEEERRIVMLHAVSGLKHREIAKALDIPLSTVLSKYKRTLKKLEAYLMEME | -0.936
HMDIRLMPGTVLTREYQGIEHRVTVAQDGQYEFEGRRYPSLSMIAREITGTRWSGPLFFGVK | 0.141
HMTDAYEVLDLNREASDEEIKKRYRELIREHHPDTLIAKGVPQEFVDLANDKMAAINAAYDRIEKDRGL | -0.0939
HMRRIADVVPEQLTREEAEELLETLAEQGEIHEEQALLARYILEQSLQGVAPEVEPLIRAKLLAGILMVY | -1.67
HMYRYYSTLRPITPGAYPKPADNPAMLIHNFDNREYVGKIGREAWGYVEYNNPLTKEQIEAFDFVAE | -0.0236
HMASEKSEQLYQQMKLDIAGMPPDTRLPSIRALMRSYSVSQLLIDRTLGRLREEGALRKRFDGLYTYL | -0.0945
HMDNNNQAAFMGALNSLKEYAKVNGNIVTKQDVESYFKDLGLDDSKYQMITGYLLANDITVKG | -0.0847
HMGGSDIYLGAFNIPQGSVRVTSGGQALTEGKDFTIDYNLGSVKIINQAILNSGIPVSVSYENNAG | -0.294
HMGQISDEETLKTVASRIIDANPDEARKYRSGKTGLLGFFVGQVMKATQGEANPKLASRIVKELLE | ≥ 0.43
HMYKLTTQRRAILDVIIENHDKHLNPEEIYDIVKEKYPEIGIATVYRTLQLLEKLNIIYRLNFDDGYNRYE | -1.12

Sequence | soluble fraction (log2)
HMSSANIKLDPLERQATQQIINNIKRKYPNATIENLQEVANDAIATMRQPEFSNYTVDKFVSYFLSM | -0.429
HMQPVEHLPTTDPLTTSAASEHERYEKVRWWLEEMQRTYETGDEVRAERIRLSLIEQMYKWEGE | -1.09
HMDLTIEQTTVLGKRLFSNALNSLGKKQRNIKKDAIESLLKRMNLKDMDQLYESIGIGDKSPLLMAQILL | 0.0239
HMHAGMKSWTIQYEKSPIYGSFLMYKDGNIYIQKEDNVVVHFPLDRFSQNDQAILKSRIEKIDQINKSS | -0.0137
HMYEGLILINKYDSLVSAKLETNKIKSLGLFFEDMEEKIAVFSGPFKNNDINLKLDFLIRNGYLDAKIY | -1.53
HMSRSKLNRLDKIKKMLIAQTGISIKEFSASLNVSEITIRRDLNLLEEQGFIRLVNGVAIYRM | -0.315
HMGRTKEEIFNILKERIVTLQYEPGKILNEIELSEEFEVSRTPIRTVFQQLEAVKLVSIVPRYGVQVA | -1.11
HMQMSDTGAIEAMVKEALDENPQAIEDFKNGKGKALGFLMGQVMKKSKGQANGGIVNKLIKEELQKRIG | 0.315
HMAPELRSDAQMRRLWALAKENGLDEVGFRAFISDATGREVESTKSLTATEAHRLIEELEAP | -0.758
HMADVPSTIFEAYRILGLNPEAPPVAVKKVVDALRMSWHPDHARSEPDRRHREERIKQINAAWDLLKGV | -0.128
HMKTGIIYGVNGPVIYLKGDTGFKISEMVYVGPEKLVGEVIGLKKHMTTVQVFEETTGLKPGETVIGTGDA | -0.0122
HMNNIYFSPVVEENNKGLRLDKFLAASFPEFSRSQLQRLILEGNVSNDDVVIADNSQKVRVGDSFQVIVPE | -0.0304
HMARLEELSNGSIVEGLLSGEAVTVVSTKWYGSSSMEVFYKTNRGSTGSQILYREDEPSLTVLEKS | -0.425
HMNFTVTDKNAVLYSNDNTKVYESPDINSKLVTTIAKDLPVNVTGITSNGWFRISLEGTYYVPGNGLEQR | -0.251
HMGAAITEAEAKQIALDHAGVSESETERMRVKLGRDDGVQEYEVNFYVGNREYDYDINAATGEIRSHDSE | 0.22
HMKTLSKEDIGFLSDEAVGEMRKAVANGEMLELRALIDQVGEKNPIVAEKLLTLVKQYDYENLNRVLE | -0.802
HMSEATTVNYKYAVTISDLRIRKGPGTNYGSVGYTGKGVFTIVAEKGGWGKLKSGAGWISLNSKYGHKVS | -0.314
HMSTMKIVRVKSNLKIGQEITSKDIEVVEVGAYNMPSEVMKNSEDVIGKYASAEMIKGEYVLAAKISDTP | -0.902
HMNEISLKEITIEEDHPWRDKKIKELDLKEHILVAMIRRKDQDIIPNGETKIYKDDILVIYD | -1.73
